US20250188194A1, “Method of treatment” (Nucleus Therapeutics Pty Ltd, priority 2021, published 2025)
Several values for one entry are separate records, joined by “and”; a condition that tells them apart may be missing. Equal values may be shown once.

Columns and labels:
Type in all cases: cell-based, human
PLB-985 cells = test: Cellular penetration assay; details: PLB-985 cells in culture, 5 μM DX1 for one hour
Procedure: FIG. 1. DX1 penetrates PLB-985 cells. Cells treated with control or 5 μM DX1 for one hour were washed, fixed, and immunostained to detect DX1. […] Dark stain represents alkaline phosphatase-based detection of signal. Bar: 25 μm.
Work with isolated mouse or human neutrophils is challenging due to their short functional lifespans, and granulocyte-differentiated HL-60 and their subclone PLB-985 human acute myeloid leukemia cells provide a reliable alternative to isolated neutrophils for NETosis studies. The nuclear-penetrating anti-DNA autoantibody 3E10 and its derivative DX1 require expression of the nucleoside transporter ENT2 in order to penetrate target cells. ENT2 expression in HL-60 cells has previously been reported, and DX1 was confirmed to penetrate into ˜100% of PLB-985 cells in culture (FIG. 1).
PLB-985 cells cultured on Shi-fix coverslips (Shikhar Biotech, Khumaltar, Lalitpur, Nepal) were treated for one hour with control media or media containing 5 μM DX1 and then washed and fixed in 100% chilled ethanol. Presence of DX1 in the cells was evaluated by incubation with Pierce™ Recombinant Protein L (1:1000) (#21189, Thermo Fisher Scientific), protein L polyclonal antibody (1:1000) (#PA1-72066, Thermo Fisher Scientific), and goat anti-chicken IgY (H+L) alkaline phosphatase secondary antibody (1:1000) (#PA1-28799, Thermo Fisher Scientific). […]

[1] = system: differentiated PLB-985 cells; test: Visualization of chromatin decondensation by DAPI stain after PMA stimulation; details: one hour pre-treatment with 10 μM DX1, 300 nM PMA two hours; control cells 67.5%; N=2
Procedure: FIGS. 2A-2D. DAPI and SYTOX™ Green stains support the conclusion that DX1inhibits chromatin decondensation and DNA release by differentiated PLB-985 cells stimulated with PMA. (2A) Chromatin decondensation in differentiated PLB-985 cells after stimulation with PMA±a one hour pre-treatment with 10 μM DX1 was visualized by DAPI stain. Left panel: Control cells with decondensed DAPI stain after PMA stimulation. Right panel: DX1-treated cells retaining condensed DAPI signal after PMA stimulation. Bar: 25 μm. (2B) Quantification of the percentage of differentiated PLB-985 cells with decondensed DAPI stain after PMA stimulation. […] (2C) DNA release by differentiated PLB-985 cells after stimulation with PMA±a one hour pre-treatment with 10 μM DX1 was visualized by addition of the impermeant DNA stain SYTOX™ Green. Representative images are shown. Bar: 25 μm. (2D) SYTOX™ Green signal in wells containing differentiated PLB-985 cells stimulated with PMA±a one hour pre-treatment with 10 […] was quantified by plate reader. […]
Differentiated PLB-985 cells were plated on Shi-fix coverslips in 12-well plates at 5×10^4 cells/well. […] Cells were fixed with ethanol followed by addition of DAPI and visualization of chromatin decondensation by fluorescence microscopy (EVOS FL, Thermo Fisher Scientific).

[2] = system: differentiated PLB-985 cells; test: H3Cit western blot; details: 10 μM DX1 one hour, then PMA; PMA control 0.64±0.06; N=3
Procedure: FIGS. 5A-5B. […] Differentiated PLB-985 cells were pre-treated with control media or media containing 10 μM DX1 for one hour, followed by stimulation with PMA. Cellular contents were isolated and analyzed by H3Cit western blot. Representative cropped blot is shown in (5A), and quantification of H3Cit band intensity normalized to actin in (5B). […]
Histone citrullination by PAD4 is a key step in NETosis that is targeted by the selective PAD4 inhibitor GSK484. Differentiated PLB-985 cells treated with control or 10 μM DX1 for one hour were stimulated by PMA, and cell contents were isolated and analyzed for H3Cit content by western blot with normalization to actin. […]
Differentiated PLB-985 cells at 8×10^5 cells/well in 12-well plates were incubated with control buffer or buffer containing 10 μM DX1 for one hour and then stimulated by addition of 300 nM PMA for two hours. Cells were isolated by centrifugation, lysed in RIPA buffer, and H3Cit content determined by western blot using anti-H3Cit primary (#AB5103, abcam, Cambridge, MA, USA) and goat anti-rabbit HRP-conjugated secondary antibody at 1:5000 (#AB205718, abcam). H3Cit band intensities normalized to actin loading control were determined by ImageJ (NIH, Bethesda, MD).

B1: DX1: 3E10 derivative, a di-scFv having the sequence SEQ ID NO: 38; nuclear-penetrating anti-DNA binding protein (protein)
scFv: DIQMTQSPSSLSASLGDRATITCRASKTVSTSSYSYMHWYQQKPGQPPKLLIKYASYLESGVPSRFSGSGSGTDFTLTISSLQPEDAATYYCQHSREFPWTFGGGTKVEIKTVDAAPGGGGSGGGGSGGGGSEVQLVESGGGLVQPGGSLRLSCAASGFTFSNYGMHWVRQAPGKGLEWVSYISSGSSTIYYADSVKGRFTISRDNAKNSLYLQMNSLRAEDTAVYYCARRGLLLDYWGQGTTVTVSSASTKGPSVFPLAPLESTGSDIQMTQSPSSLSASLGDRATITCRASKTVSTSSYSYMHWYQQKPGQPPKLLIKYASYLESGVPSRFSGSGSGTDFTLTISSLQPEDAATYYCQHSREFPWTFGGGTKVEIKTVDAAPGGGGSGGGGSGGGGSEVQLVESGGGLVQPGGSLRLSCAASGFTFSNYGMHWVRQAPGKGLEWVSYISSGSSTIYYADSVKGRFTISRDNAKNSLYLQMNSLRAEDTAVYYCARRGLLLDYWGQGTTVTVSS
modifications: DX1 sequence
PLB-985 cells
  cells penetrated by DX1: ~100%
[1]
  percentage of cells with decondensed DAPI stain after PMA stimulation: 37.8±2.7% and 37.8±3.8%
[2]
  intracellular H3Cit content normalized to actin, relative to unstimulated cells: 1.46±0.20
